We go through 1 substance from PMC6736755.

The target of the experiment is H-2 I-A^d class II MHC molecule (mouse). Nature of the experiment: radioligand binding.

By IC50 is commonly meant the midpoint of a concentration-inhibition curve. Turning to OVA323–339 peptide (WT), the concentration for half-maximal inhibition (IC50) was found to be 2 nM.
